What all share (assay): BLI (Octet RED96), antagonist captured on biosensor, ligand in solution
(Biolayer interferometry detects binding as a change in optical thickness at a sensor tip.)

In test [1] the target is T1, human RANKL (receptor activator of nuclear factor-kappa B ligand) (human, UniProt O14788 140-317, limits assumed).
T1 construct: also called OPGL
T1 sequence (looked up): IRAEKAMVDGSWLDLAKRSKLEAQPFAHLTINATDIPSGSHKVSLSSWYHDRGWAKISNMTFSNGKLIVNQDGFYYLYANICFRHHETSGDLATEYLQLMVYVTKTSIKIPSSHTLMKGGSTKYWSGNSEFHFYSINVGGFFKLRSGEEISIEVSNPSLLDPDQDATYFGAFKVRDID
How it is done:
(§1) Binding activities of individual bifunctional antagonists to human ligands or target proteins were measured by biolayer interferometry (BLI) using Octet RED96 (FortéBIO, Pall Corporation, USA). Binding analysis was performed by first capturing the polypeptide bifunctional antagonists to biosensors followed by two baseline steps in 1× kinetic buffer. The bifunctional antagonists-captured biosensors were then submerged in wells containing different concentrations of specific individual ligand, such as RANKL, Activin A, activin B, Activin AB, myostatin, TGF-β1, TGF-β2 or TGF-β3, for 6 min association followed by 6 min of dissociation time in 1× kinetic buffer. The bifunctional antagonists-captured sensors were also dipped in wells containing 1× kinetic buffer to allow single reference subtraction in order to compensate for the natural dissociation of captured bifunctional antagonists. The binding sensorgrams were collected using the 8-channel detection mode on the Octet RED96 biosensor. Data were acquired and analyzed using the data acquisition software v11.1 (FortéBIO, Pall Corporation, USA).

The target in the next test is T2, human Activin A (human, UniProt A4D1W7 311-426, Activin A is a disulfide-linked homodimer of the inhibin beta A mature chain. One copy is given.).
T2 sequence: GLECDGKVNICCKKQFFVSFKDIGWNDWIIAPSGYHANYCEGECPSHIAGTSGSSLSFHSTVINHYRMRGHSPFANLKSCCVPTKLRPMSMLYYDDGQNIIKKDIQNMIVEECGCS
How it is done: as §1

The target of another test is human TGF-β1 (human, UniProt P01137 279-390). How it is done: as §1
The next test deals with T3, human TGF-β3 (human, UniProt P10600 301-412).
T3 sequence (looked up): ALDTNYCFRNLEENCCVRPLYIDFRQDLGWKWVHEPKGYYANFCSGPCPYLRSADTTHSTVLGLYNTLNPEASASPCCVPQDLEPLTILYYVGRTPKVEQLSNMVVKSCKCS
How it is done:
as §1

The term Kd denotes the free concentration of one partner at which half of the binding sites on the other are occupied at equilibrium, for simple one-to-one binding.

human TGF-β1, sequence (P01137 279-390 limits assumed): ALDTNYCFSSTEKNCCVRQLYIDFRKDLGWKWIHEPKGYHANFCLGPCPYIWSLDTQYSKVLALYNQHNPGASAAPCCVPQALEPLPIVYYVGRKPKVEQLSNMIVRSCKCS

B1: bispecific antibody A237 (bispecific antibody)
heavy: QVQLVQSGAEVKKPGASVKVSCKASGYTFTSYGLSWVRQAPGQGLEWMGWIIPYNGNTNSAQKLQGRVTMTTDTSTSTAYMELRSLRSDDTAVYFCARDRDYGVNYDAFDIWGQGTMVTVSSGGGGSGGGGSGGGGSEVQLLESGGGLVQPGGSLRLSCAASGFTFSSYAMSWVRQAPGKGLEWVSGITGSGGSTYYADSVKGRFTISRDNSKNTLYLQMNSLRAEDTAVYYCAKDPGTTVIMSWFDPWGQGTLVTVSSASTKGPSVFPLAPCSRSTSESTAALGCLVKDYFPEPVTVSWNSGALTSGVHTFPAVLQSSGLYSLSSVVTVPSSNFGTQTYTCNVDHKPSNTKVDKTVERKCCVECPPCPAPPVAGPSVFLFPPKPKDTLMISRTPEVTCVVVDVSHEDPEVQFNWYVDGVEVHNAKTKPREEQFNSTFRVVSVLTVVHQDWLNGKEYKCKVSNKGLPAPIEKTISKTKGQPREPQVYTLPPSREEMTKNQVSLTCLVKGFYPSDIAVEWESNGQPENNYKTTPPMLDSDGSFFLYSKLTVDKSRWQQGNVFSCSVMHEALHNHYTQKSLSLSPGK
light: not shown
As for B1, the Kd in test [1] is around 0.001 nM; with human Activin A, around 0.3 nM.

B2: bispecific antibody A241 (bispecific antibody, human IgG2, kappa)
heavy: QVQLVQSGAEVKKPGSSVKVSCKASGYTFSSNVISWVRQAPGQGLEWMGGVIPIVDIANYAQRFKGRVTITADESTSTTYMELSSLRSEDTAVYYCASTLGLVLDAMDYWGQGTLVTVSSGGGGSGGGGSGGGGSEVQLLESGGGLVQPGGSLRLSCAASGFTFSSYAMSWVRQAPGKGLEWVSGITGSGGSTYYADSVKGRFTISRDNSKNTLYLQMNSLRAEDTAVYYCAKDPGTTVIMSWFDPWGQGTLVTVSSASTKGPSVFPLAPCSRSTSESTAALGCLVKDYFPEPVTVSWNSGALTSGVHTFPAVLQSSGLYSLSSVVTVPSSNFGTQTYTCNVDHKPSNTKVDKTVERKCCVECPPCPAPPVAGPSVFLFPPKPKDTLMISRTPEVTCVVVDVSHEDPEVQFNWYVDGVEVHNAKTKPREEQFNSTFRVVSVLTVVHQDWLNGKEYKCKVSNKGLPAPIEKTISKTKGQPREPQVYTLPPSREEMTKNQVSLTCLVKGFYPSDIAVEWESNGQPENNYKTTPPMLDSDGSFFLYSKLTVDKSRWQQGNVFSCSVMHEALHNHYTQKSLSLSPGK
light: ETVLTQSPGTLSLSPGERATLSCRASQSLGSSYLAWYQQKPGQAPRLLIYGASSRAPGIPDRFSGSGSGTDFTLTISRLEPEDFAVYYCQQYADSPITFGQGTRLEIKGGGGSGGGGSGGGGSEIVLTQSPGTLSLSPGERATLSCRASQSVRGRYLAWYQQKPGQAPRLLIYGASSRATGIPDRFSGSGSGTDFTLTISRLEPEDFAVFYCQQYGSSPRTFGQGTKVEIKRTVAAPSVFIFPPSDEQLKSGTASVVCLLNNFYPREAKVQWKVDNALQSGNSQESVTEQDSKDSTYSLSSTLTLSKADYEKHKVYACEVTHQGLSSPVTKSFNRGEC
Take B2: the results for the Kd (in the test with human TGF-β1; with human TGF-β3; in test [1]) were around 2 nM, around 0.3 nM and around 0.7 nM, respectively.

Values taken from patent US20230391880A1 (published 2023).
